# From patent US20100093623A1, “COMPOSITIONS AND METHODS FOR […]-LIKE RECEPTOR ACTIVITY AND USES THEREOF” (Burnham Institute for Medical Research, priority 2008, published 2010)
# T1: NLRP1 (Homo sapiens, UniProt Q9C000)
# T1 sequence (Q9C000 1-1473): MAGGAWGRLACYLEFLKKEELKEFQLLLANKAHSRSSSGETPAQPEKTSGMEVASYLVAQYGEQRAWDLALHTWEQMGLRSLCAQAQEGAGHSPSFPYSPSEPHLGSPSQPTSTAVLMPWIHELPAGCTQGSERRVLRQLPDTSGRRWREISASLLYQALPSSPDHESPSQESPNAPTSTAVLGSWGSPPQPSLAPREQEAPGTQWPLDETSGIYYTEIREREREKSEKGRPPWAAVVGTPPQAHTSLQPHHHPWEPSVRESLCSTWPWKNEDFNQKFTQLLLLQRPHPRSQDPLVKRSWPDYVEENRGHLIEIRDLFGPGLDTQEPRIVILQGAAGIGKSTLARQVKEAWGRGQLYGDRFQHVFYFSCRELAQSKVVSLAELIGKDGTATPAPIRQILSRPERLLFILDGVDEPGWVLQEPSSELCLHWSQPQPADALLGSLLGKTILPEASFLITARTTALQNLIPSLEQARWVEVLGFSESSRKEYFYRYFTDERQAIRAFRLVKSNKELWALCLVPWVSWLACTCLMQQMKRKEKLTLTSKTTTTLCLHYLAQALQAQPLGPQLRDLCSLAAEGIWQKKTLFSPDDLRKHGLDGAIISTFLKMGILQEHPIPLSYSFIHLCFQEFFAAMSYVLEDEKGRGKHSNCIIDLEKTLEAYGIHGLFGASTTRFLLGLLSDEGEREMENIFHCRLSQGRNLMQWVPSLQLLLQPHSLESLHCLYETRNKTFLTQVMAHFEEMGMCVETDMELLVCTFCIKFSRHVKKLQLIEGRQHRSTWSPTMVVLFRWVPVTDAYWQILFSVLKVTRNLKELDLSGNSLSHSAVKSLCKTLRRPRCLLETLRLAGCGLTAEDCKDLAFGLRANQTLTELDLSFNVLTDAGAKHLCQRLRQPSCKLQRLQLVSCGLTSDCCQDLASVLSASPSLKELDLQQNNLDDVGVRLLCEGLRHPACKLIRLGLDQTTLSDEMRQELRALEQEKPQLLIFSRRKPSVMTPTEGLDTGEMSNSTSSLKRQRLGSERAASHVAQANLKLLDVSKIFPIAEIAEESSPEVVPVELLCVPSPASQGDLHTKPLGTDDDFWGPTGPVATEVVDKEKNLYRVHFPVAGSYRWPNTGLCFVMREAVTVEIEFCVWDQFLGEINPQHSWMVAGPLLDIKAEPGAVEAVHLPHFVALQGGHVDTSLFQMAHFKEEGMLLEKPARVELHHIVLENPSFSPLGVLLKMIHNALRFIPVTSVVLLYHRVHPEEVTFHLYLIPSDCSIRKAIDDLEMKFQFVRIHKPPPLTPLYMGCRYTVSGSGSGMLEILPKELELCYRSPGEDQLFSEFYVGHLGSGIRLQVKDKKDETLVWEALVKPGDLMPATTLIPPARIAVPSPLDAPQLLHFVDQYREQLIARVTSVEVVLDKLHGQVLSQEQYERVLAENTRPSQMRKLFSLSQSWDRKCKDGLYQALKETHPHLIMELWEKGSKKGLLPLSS
# Biological target: T1, NLRP1
# Assay: FITC-ATP binding to NLRP1 by fluorescence polarization assay (FPA)
# Conditions: protein 1 μM at excess; NLRP1 0.125 μM; FITC-ATP 10 nM; MDP-LD 1 μM
molecule,measurement,value
"Bid: control protein (Bcl-2 family) (protein, UniProt P55957 1-195, looked up) BH3-interacting domain death …: MDCEVNNGSSLRDECITNLLVFGFLQSCSDNSFRRELDALGHELPVLAPQWEGYDELQTDGNRSSHSRLGRIEADSESQEDIIRNIARHLAQVGDSMDRSIPPGLVNGLALQLRNTSRSEEDRNRDLATALEQLLQAYPRDMEKEKTMLVLALLLAKKVASHTPSLLRDVFHTTVNFINQNLRTYVRSLARNGMD",reduction of FITC-ATP binding to NLRP1,negligible effects
